Assay results taken from patent publication US20020002277A1, “Inhibitors of platelet activation and recruitment” (priority 1998, published 2002).

How the values were obtained:
[1] = Phosphate release assay for ATPase activity; type: biochemical; conditions: for CPM × 10^3 (net counts), ATPase activity in CM: 5 days (Table 3)
Procedure: This example describes an ATPase assay that may be used to track enzyme activity. Samples (approximately 100 μl of either concentrated CM or purified polypeptide) are combined with 20 μl of 10X assay buffer (200 mM HEPES, 1.2 M NaCl, 50 mM KCl, 15 mM CaCl2, 15 mM MgCl2 and 3 mM ATP) and sterile water is added to a final volume of 200 μl. Radiolabeled ATP (0.8 μCi γ [^32P] ATP; Amersham, Arlington Heights, Ill.) is added and the mixture incubated for 20 minutes at 37° C. Stop mix (0.5 ml of 20% activated charcoal/1 M HCl) is added and the reaction is placed on ice for 10 minutes. After centrifugation (14K rpm for 10 minutes), the supernatant is assayed for free ^32P using a scintillation counter. Data are expressed as raw counts or net counts, or as picomoles of ATP degraded per minute.
The transfections were repeated and the CM (10, 20 and 30 μL, unconcentrated) was assayed essentially as described in Example 7. […] ATPase levels in CM from COS-1 cells transfected with pIL2LFlagSolCD39 increased with time in culture over at least 4 days post-transfection.
To determine whether activity was affected by removal of the N-terminal FLAG® tag, COS-1 cells were transfected with pIL2LFlagSolCD39 and pIL2LSolCD39 and supernatants (sups) were harvested after 5 days. Samples of 10, 20 and 30 μL of 1x sups were assayed for ATPase activity as described in Example 7.
The expression of Trim1 and Trim2 constructs was analyzed in COS-1 cells cultured in 10 cm plates. After 5 days of incubation, 1x supernatants were examined via ELISA (using anti-CD39) and the phosphate-release assay described in Example 7. […] Expression levels, however, appeared to be reduced 3-4 fold.

[2] = Phosphate release assay for ATPase activity; type: biochemical; conditions: 100 μL of 10-fold concentrated CM from COS-1 transfectants; 10X buffer with 30 mM cold ATP

B1: pIL2LFlagSolCD39: N-terminally FLAG-tagged solCD39 with human proinsulin/IL2 leader and 12 mature IL2 residues (SEQ ID NO:25); COS-1 CM (protein)
chain: MALWIDRMQLLSCIALSLALVTNSAPTSSSTKKTQLTSSGDYKDDDDKTQNKALPENVKYGIVLDAGSSHTSLYIYKWPAEKENDTGVVHQVEECRVKGPGISKFVQKVNEIGIYLTDCMERAREVIPRSQHQETPVYLGATAGMRLLRMESEELADRVLDVVERSLSNYPFDFQGARIITGQEEGAYGWITINYLLGKFSQKTRWFSIVPYETNNQETFGALDLGGASTQVTFVPQNQTIESPDNALQFRLYGKDYNVYTHSFLCYGKDQALWQKLAKDIQVASNEILRDPCFHPGYKKVVNVSDLYKTPCTKRFEMTLPFQQFEIQGIGNYQQCHQSILELFNTSYCPYSQCAFNGIFLPPLQGDFGAFSAFYFVMKFLNLTSEKVSQEKVTEMMKKFCAQPWEEIKTSYAGVKEKYLSEYCFSGTYILSLLLQGYHFTADSWEHIHFIGKIQGSDAGWTLGYMLNLTNMIPAEQPLSTPLSHST
modifications: CDS (1)..(1461)
notes: COS-1 CM
CPM × 10^3 (net counts), ATPase activity in CM ([1]; 10 μL 1x COS-1 supernatant): 23.6 CPM × 10^3 | CPM Release × 10^3 (net counts), ATPase activity in CM ([1]; 10 μL unconcentrated COS-1 CM): 24.71 CPM × 10^3 | CPM × 10^3 (net counts), ATPase activity in CM ([1]; 20 μL 1x COS-1 supernatant): 40.2 CPM × 10^3 | CPM Release × 10^3 (net counts), ATPase activity in CM ([1]; 20 μL unconcentrated COS-1 CM): 43.92 CPM × 10^3 | CPM × 10^3 (net counts), ATPase activity in CM ([1]; 30 μL 1x COS-1 supernatant): 54.4 CPM × 10^3 | CPM Release × 10^3 (net counts), ATPase activity in CM ([1]; 30 μL unconcentrated COS-1 CM): 56.93 CPM × 10^3 | CPM Release × 10^3 (raw counts), ATPase activity in concentrated CM [2]: 99.96 CPM × 10^3
